Experimental data: patent publication US20240209100A1 (DIAGONAL THERAPEUTICS, published 2024)

B1: DGL313 (bispecific antibody, V domains shown)
V domain 1: EVQLVESGGGLVQPGGSLRLSCAASGSIFSINAMGWYRQAPGKQREVVATSTGGGMTNYADSVKGRFTISRDNAKNTVYLQMNSLKPEDTAVYYCNADKDPFFPGDYWGQGTQVTVSS
V domain 2: QVQLVESGGGLVQAGGSLRLSCAASGMFFSIGEMGWYRQAPGKQREMVARITRDGRINYADSVEGRFTASRNVAKTTLFLQMNSLKPEDTANYQCTVRRWDEEYWGKGTLVTVSD
B2: DGL317 (bispecific antibody, V domains shown)
V domain 1: QVQLQESGGGLVQPGGSLRLSCAASGFIFSNWYMRWVRQAPGEGLEWVSSINSGGDDTDYADSVKGRFTISRDNAKGTLYLQMHSLKPEDTALYYCERGADRVRGQGTQVTVSS
V domain 2: B1 V domain 2
B3: DGL319 (bispecific antibody, V domains shown)
V domain 1: B1 V domain 1
V domain 2: QLQLVESGGGLVQAGGSLRLSCAASRSITFSHNVMGWYRQAPGKQRELVASIGSGGSTNYVDSVKGRATISRDNAKKTVYLQMNSLKPEDTAVYYCGVVVGVYRGSLGQGTQVTVSS
B4: DGL314 (bispecific antibody, V domains shown)
V domain 1: QVQLQESGGGLVQPGGSLRLSCAASGSIFSTKGLGWYRQAPGEQRELVAGISSAGWIFYTQSVKGRFTMSRDNAKNTVYLQMNSLKPEDTAVYYCNSAQSGVPLRSWGQGTQVTVAS
V domain 2: B1 V domain 2
B5: DGL309 (bispecific antibody, V domains shown)
V domain 1: QVQLQESGGGLVQPGGSARLSCVASGIIFNDYHMGWYRQAPGKQRDLVAGITAGGSTTYADSVKGRFTISRDNAKHTVYLQMNNLSPEDTAVYYCNTFYNAILDWGKGTLVTVSS
V domain 2: EVQLVESGGGVAQAGGSLRLSCAASITSFSLNTMGYYRQLPGKQRELVAVESSSGITNYADSVKGRFTISRDGAKNTVFLQMNSLTPEDTAVYYCGGKLFGRDFWGQGTQVTVSS
B6: DGL321 (bispecific antibody, V domains shown)
V domain 1: B5 V domain 1
V domain 2: B3 V domain 2
B7: DGL315 (bispecific antibody, V domains shown)
V domain 1: B5 V domain 1
V domain 2: B1 V domain 2
B8: DGL311 (bispecific antibody, V domains shown)
V domain 1: QVQLVESGGGLVQAGGSLRLSCAASGRTFSSYTMGWFRQAPGKEREFVAAISWSAGRTYYADSVKGRFTISRDNAKNTVYLQMNSLKPEDTAVYFCAAEEAPDWAPIDCSGYGCLSLYDYWGQGTQVTVSS
V domain 2: B5 V domain 2
B9: DGL302 (bispecific antibody, V domains shown)
V domain 1: QVQLVESGGGLVQAGGSLRLSCAASGRTFSKHAMGWFRQAPGKEREFVAAIDWSGGSTYYADSVKGRFTISRDNAKNTVYLQMDSLKPEDTAVYYCAADSYTDYAQLWLPELESEYDYWGQGTQVTVSS
V domain 2: QVQLVESGGGLVLPGESLRLSCVVSGTIDNINSMGWYRQAPGKQRELVAYITKLGSANYADSVEGRFTISRDNAKKTVHLQMNSLKPEDTAVYYCHANERGRITWAQGTQVTVSS
B10: DGL310 (bispecific antibody, V domains shown)
V domain 1: B9 V domain 1
V domain 2: B5 V domain 2
B11: DGL316 (bispecific antibody, V domains shown)
V domain 1: B9 V domain 1
V domain 2: B1 V domain 2
B12: DGL303 (bispecific antibody, V domains shown)
V domain 1: B2 V domain 1
V domain 2: B9 V domain 2
B13: DGL306 (bispecific antibody, V domains shown)
V domain 1: B9 V domain 1
V domain 2: QVQLQESGGGLVQPGGSLGLSCAASGIKISVNSMAWYRQAPGERREMVAVISSGGSAVYADSVKGRFTISRDNAKNMVYLQMNSLKPEDTAVYYCHPGSAAYRDYWGQGTQVTVSS
B14: DGL320 (bispecific antibody, V domains shown)
V domain 1: B4 V domain 1
V domain 2: B3 V domain 2
B15: DGL304 (bispecific antibody, V domains shown)
V domain 1: QVQLVESGGGLVQAGGSLRLSCAASGRTFSSYDMGWFRQAPGKEREFVAALRWSGGSTSYADSVKGRFTISRDNAKNTVYLHMNSLKPEDTAVYYCAATLETDSGTYWADYWGQGTQVTVSS
V domain 2: B13 V domain 2
B16: DGL305 (bispecific antibody, V domains shown)
V domain 1: B1 V domain 1
V domain 2: B13 V domain 2
B17: DGL308 (bispecific antibody, V domains shown)
V domain 1: B15 V domain 1
V domain 2: B5 V domain 2
B18: DGL312 (bispecific antibody, V domains shown)
V domain 1: B15 V domain 1
V domain 2: B1 V domain 2
B19: DGL307 (bispecific antibody, V domains shown)
V domain 1: B8 V domain 1
V domain 2: B13 V domain 2
B20: DGL318 (bispecific antibody, V domains shown)
V domain 1: B15 V domain 1
V domain 2: B3 V domain 2

Target: T1, IL-18 receptor (IL-18Rα/IL-18Rβ) overexpressed on HEK-Blue IL-18 cells (Homo sapiens (Human), UniProt Q13478 19-541; O95256 20-599)
T1 sequence 1: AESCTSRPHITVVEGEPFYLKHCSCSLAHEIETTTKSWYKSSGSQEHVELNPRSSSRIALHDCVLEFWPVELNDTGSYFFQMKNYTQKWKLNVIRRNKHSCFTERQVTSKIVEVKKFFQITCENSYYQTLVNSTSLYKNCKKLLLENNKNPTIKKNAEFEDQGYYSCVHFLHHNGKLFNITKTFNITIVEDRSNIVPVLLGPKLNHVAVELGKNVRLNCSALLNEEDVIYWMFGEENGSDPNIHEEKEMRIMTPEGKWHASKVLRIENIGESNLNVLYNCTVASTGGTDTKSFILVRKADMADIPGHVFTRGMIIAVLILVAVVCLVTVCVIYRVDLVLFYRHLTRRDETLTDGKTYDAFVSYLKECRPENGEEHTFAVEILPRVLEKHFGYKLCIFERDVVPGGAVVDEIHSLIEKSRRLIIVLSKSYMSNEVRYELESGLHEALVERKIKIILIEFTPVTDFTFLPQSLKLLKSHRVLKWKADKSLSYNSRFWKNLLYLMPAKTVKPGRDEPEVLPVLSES
T1 sequence 2: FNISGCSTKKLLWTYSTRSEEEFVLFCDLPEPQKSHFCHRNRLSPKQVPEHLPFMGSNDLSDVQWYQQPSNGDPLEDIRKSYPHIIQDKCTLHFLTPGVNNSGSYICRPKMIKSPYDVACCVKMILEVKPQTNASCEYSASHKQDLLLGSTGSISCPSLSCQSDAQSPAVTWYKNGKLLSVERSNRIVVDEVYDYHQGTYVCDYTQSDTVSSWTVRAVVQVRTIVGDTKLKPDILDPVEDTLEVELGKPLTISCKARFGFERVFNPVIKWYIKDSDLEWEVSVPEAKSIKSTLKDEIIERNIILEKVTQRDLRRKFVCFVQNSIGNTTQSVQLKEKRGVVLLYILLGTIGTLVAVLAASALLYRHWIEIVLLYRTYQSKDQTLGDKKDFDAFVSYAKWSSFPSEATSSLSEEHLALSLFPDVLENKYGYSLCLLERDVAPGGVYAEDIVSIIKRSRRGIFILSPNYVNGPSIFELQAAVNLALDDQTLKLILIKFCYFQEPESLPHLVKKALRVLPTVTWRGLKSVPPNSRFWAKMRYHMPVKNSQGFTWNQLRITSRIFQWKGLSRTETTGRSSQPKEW
Experiment: cell-based or functional assay

Binder | HEK-Blue IL-18: Abs 405 [Abs] | HEK-Blue IL-18: Fold over Background [fold]
B1 | 0.62 | 2.7
B2 | 0.99 | 4.3
B3 | 2.88 | 12.5
B4 | 0.83 | 3.6
B5 | 0.23 | 1
B6 | 0.38 | 1.7
B7 | 0.58 | 2.5
B8 | 0.79 | 3.4
B9 | 1.18 | 5.2
B10 | 2.7 | 11.8
B11 | 0.58 | 2.5
B12 | 1.02 | 4.4
B13 | 1.41 | 6.2
B14 | 2.36 | 10.3
B15 | 1.32 | 5.7
B16 | 0.25 | 1.1
B17 | 1.48 | 6.4
B18 | 0.63 | 2.7
B19 | 0.35 | 1.5
B20 | 2.23 | 9.7
